Source: publication PMC8427654

Biological target: T1, split luciferase wild-type (WT) Apaf-1 (apoptotic protease activating factor-1), O14727
T1 chain: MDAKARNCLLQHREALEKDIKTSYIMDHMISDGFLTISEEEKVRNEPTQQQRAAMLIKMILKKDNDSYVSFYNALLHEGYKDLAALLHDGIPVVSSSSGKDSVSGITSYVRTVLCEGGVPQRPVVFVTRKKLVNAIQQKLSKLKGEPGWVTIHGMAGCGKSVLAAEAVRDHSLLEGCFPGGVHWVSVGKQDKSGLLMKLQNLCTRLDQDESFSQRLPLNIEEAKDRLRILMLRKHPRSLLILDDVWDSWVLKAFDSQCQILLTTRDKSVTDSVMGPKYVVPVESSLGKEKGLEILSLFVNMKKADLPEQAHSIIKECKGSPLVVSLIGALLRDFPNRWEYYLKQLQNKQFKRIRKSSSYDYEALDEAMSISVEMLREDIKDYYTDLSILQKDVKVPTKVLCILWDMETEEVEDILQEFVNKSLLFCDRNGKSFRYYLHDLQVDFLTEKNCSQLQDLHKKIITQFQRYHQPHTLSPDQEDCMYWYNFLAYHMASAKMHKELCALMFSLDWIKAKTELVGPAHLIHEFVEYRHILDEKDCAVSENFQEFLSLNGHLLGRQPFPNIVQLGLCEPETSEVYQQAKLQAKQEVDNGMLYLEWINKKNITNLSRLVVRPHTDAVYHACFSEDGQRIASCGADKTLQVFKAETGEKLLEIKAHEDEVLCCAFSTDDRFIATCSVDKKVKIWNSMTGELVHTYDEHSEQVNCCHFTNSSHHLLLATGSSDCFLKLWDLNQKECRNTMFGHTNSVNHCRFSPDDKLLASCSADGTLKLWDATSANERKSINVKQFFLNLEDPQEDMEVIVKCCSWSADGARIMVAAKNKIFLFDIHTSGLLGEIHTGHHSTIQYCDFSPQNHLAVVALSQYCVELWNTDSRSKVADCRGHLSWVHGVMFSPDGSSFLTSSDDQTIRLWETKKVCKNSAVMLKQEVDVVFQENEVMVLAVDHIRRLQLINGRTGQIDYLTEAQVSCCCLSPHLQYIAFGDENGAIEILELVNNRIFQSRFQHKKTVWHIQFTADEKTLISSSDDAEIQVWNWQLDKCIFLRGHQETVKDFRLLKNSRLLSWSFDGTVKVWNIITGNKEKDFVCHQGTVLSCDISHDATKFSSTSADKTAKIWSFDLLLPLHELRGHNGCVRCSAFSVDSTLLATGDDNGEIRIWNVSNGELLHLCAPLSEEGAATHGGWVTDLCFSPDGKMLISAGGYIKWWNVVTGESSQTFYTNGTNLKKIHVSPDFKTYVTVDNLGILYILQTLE
Assay: split reporter
Conditions: remark: other sources report otherwise

B1: split luciferase wild-type (WT) Apaf-1 (apoptotic protease activating factor-1), O14727 1-1248 (natural protein)
chain: T1 chain
luciferase activity, fold over pcDNA3 transfection control: 32 fold
